According to US20260151494A1:

Experiments:
[1] = target: apical domain of CD71 (Screen 3: 'cynomolgus apical domain of human CD71') (cynomolgus (as paragraph 454 words it; ambiguous)); test: primary ELISA
[2] = target: apical domain of CD71 (Screen 3: 'cynomolgus apical domain of human CD71') (cynomolgus (as paragraph 454 words it; ambiguous)); test: primary ELISA, RLU ratio to HSA

Binder | RLU [1] [RLU] | Apical domain:HSA [2]
CD71-binding FN3 domain SEQ ID NO: 234 (designed binder) MSLPAPKNLVVSRVTEDSARLSWTAPDAAFDSFFIGYLEPQPPGEAIALYVPGSERSYDLTGLKPGTEYNVTIQGVKGGFPSEPLVAHFTT | 7.51e+06 | 798
CD71-binding FN3 domain SEQ ID NO: 235 (designed binder) MSLPAPKNLVVSRVTEDSARLSWTAPDAAFDSFEIVYAEPVRFGEAIVLTVPGSERSYDLTGLKPGTEYWVQIGGVKGGNWSAPLSAIFTT | 5.63e+06 | 558
CD71-binding FN3 domain SEQ ID NO: 310 (designed binder) MSLPAPKNLVVSRVTEDSARLSWTAPDAAFDSFEIDYGEYSQAGEAIGLLVPGSERSYDLTGLKPGTEYAVWIGGVKGGFFSTPLEADFTT | 4.83e+06 | 168
CD71-binding FN3 domain SEQ ID NO: 306 (designed binder) MSLPAPKNLVVSRVTEDSARLSWTAPDAAFDSFEIGHFENLYLGEAIVLTVPGSERSYDLTGLKPGIEYWVQIGGVKGGVWSVSLSAIFTT | 4.74e+06 | 320
CD71-binding FN3 domain SEQ ID NO: 308 (designed binder) MSLPAPKNLVVSRVTEDSARMSWTTPDAAFDSFEIGYFENLYLGEAIVLTVPGSERSYDLTGLKPGTEYWVQIGGVKGGNWSAPLSAIFTT | 5.26e+06 | 188
CD71-binding FN3 domain SEQ ID NO: 311 (designed binder) MSLPAPKNLVVSRVTEDSARLSWTAPDAAFDSFEIGYWENAYKGEAIVLTVPGSERSYDLTGLKPGTEYVVFIGGVKGGSWSNPLSAIFTT | 4.66e+06 | 260
CD71-binding FN3 domain SEQ ID NO: 314 (designed binder) MGSLPAPKNLVVSRVTEDSARLSWTAPDAAFDSFEIGYFENLYLGEAIVLTVPGSERSYDLTGLKPGTEYWVQIGGVKGGNWSAPLSAIFTT | 5.25e+06 | 427
CD71-binding FN3 domain SEQ ID NO: 297 (designed binder) MSLPAPKNLVVSRVTEDSARLSWTAPDAAFDSFEISYFENTWYGEAIVLTVPGSERSYDLTGLKPGTEYSVRIFGVKGGNFSFPLSAIFTT | 5.29e+06 | 1030
CD71-binding FN3 domain SEQ ID NO: 305 (designed binder) MSLPAPKNLVVSRVTEDSARLSWTAPDAAFDSFEIAYFEQTYTGEAIVLTVPGSERSYDLTGLKPGTEYWVQIGGVKGGNWSAPLSAIFTT | 5.69e+06 | 495
CD71-binding FN3 domain SEQ ID NO: 299 (designed binder) MSLPAPKNLVVSRVTEDSARLSWTAPDAAFDSFEIAYFENLYLGEAIVLTVPGSERSYDLTGLKPGTEYWVQIGGVKGGNWSAPLSAIFTT | 5.35e+06 | 614
CD71-binding FN3 domain SEQ ID NO: 300 (designed binder) MSLPAPKNLVVSRVTEDSARLSWTAPDAAFDSFEIGYFEATPNGEAIVLTVPGSERSYDLTGLKPGTEYKVFIGGVKGGRWSKPLSAIFTT | 5.57e+06 | 406
CD71-binding FN3 domain SEQ ID NO: 309 (designed binder) MSLPAPENLVVSRVTEDSARLSWTAPDAAFDSFEIGYFENLYLGEAIVLTVPGSERSYDLTGLKPGTEYWVQIGGVKGGNWSAPLSAIFTT | 5.62e+06 | 452
CD71-binding FN3 domain SEQ ID NO: 316 (designed binder) MSLPAPKNLVISRVTEDSARLSWTAPDAAFDSFEIGYFENLYLGEAIVLTVPGSERSYDLTGLKPGTEYWVQIGGVKGGNWSAPLSAIFTT | 4.44e+06 | 442
CD71-binding FN3 domain SEQ ID NO: 298 (designed binder) MSLPAPKNLVVSRVTEDSARLSWTAPDAAFDSFEIGYFENLYLGEAIVLTVPGSERSYDLTGLKPGTEYWVQIGGVKGDNWSAPLSAIFTT | 5.3e+06 | 414
CD71-binding FN3 domain SEQ ID NO: 301 (designed binder) MSLPAPKNLVVSRVTEDSARLSWTTPDAAFDSFEIGYFENLYLGEAIVLTVPGSERSYDLTGLKPGTEYWVQIGGVKGGNWSAPLSAIFTT | 4.53e+06 | 216
CD71-binding FN3 domain SEQ ID NO: 313 (designed binder) MSLPAPKNLVVSRVTEDSARLSWTAPDAAFDSFEIAYFENDWAGEAIVLTIPGSERSYDLTGLKPGTEYWVQIGGVKGGNWSAPLSAIFTT | 5.17e+06 | 835
CD71-binding FN3 domain SEQ ID NO: 315 (designed binder) MSLPAPKNLVVSRVTEDSARLSWTAPDAAFDSFEIGYFENLYLGEAIVLTVPGSERSYDLTGLKPGTEYWVQIGGVKGGNWSAPLSAISTT | 4.4e+06 | 73
CD71-binding FN3 domain SEQ ID NO: 236 (designed binder) MSLPAPKNLVVSRVTEDSARLSWTEPDAAFDSFEIGYFENLYLGEAIVLTVPGSERSYDLTGLKPGTEYWVQIGGVKGGNWSAPLSAIFTT | 5.32e+06 | 164
CD71-binding FN3 domain SEQ ID NO: 307 (designed binder) MSLPAPKNLVVSRVTEDSARLSWTAPDAAFNSFEIGYFENLYLGEAIVLTVPGSERSYDLTGLKPGTEYWVQIGGVKGGTFSAPLSAIFTT | 5.36e+06 | 72
CD71-binding FN3 domain SEQ ID NO: 304 (designed binder) MSLPAPKNLVVSRVTEDSARLSWTAPDAAFDSFEIGYFENLYLGEAIVLTVPGSERSYDLTGLKPGTEYVVFIGGVKGGVWSVPLSAIFTT | 5.5e+06 | 446
CD71-binding FN3 domain SEQ ID NO: 312 (designed binder) MSLPAPKNLVVSRVTEDSARLSWTAPDAAFDSFEIGYFENLYLGEAIVLTIPGSERSYDLTGLKPGTEYWVQIGGVKGGNWSAPLSAIFTT | 5.31e+06 | 556
CD71-binding FN3 domain SEQ ID NO: 303 (designed binder) MSLPAPKNLVVSRVTEDSARLSWTAPDAAFDSFWIEYWEGWKSGEAIVLTVPGSERSYDLTGLKPGTEYRVHIWGVKGGIVSWPLSAIFTT | 5.6e+06 | 636

Further lines, results first:

RLU [1] [RLU] | Apical domain:HSA [2] | Binder
6.24e+06 | 701 | CD71-binding FN3 domain SEQ ID NO: 331 (designed binder) MSLPAPKNLVVSRVTEDSARLSWTAPDAAFDSFFIGYLEPQPPGEAIHLYVPGSERSYDLTGLKPGTEYNVTIQGVKVGFPSEPLIANFTT
6.2e+06 | 171 | CD71-binding FN3 domain SEQ ID NO: 333 (designed binder) MSLPAPENLVVSRVTEDSARLSWTAPDAAFDSFFIGYLEPQPPGEAIALYVPGSERSYDLTGLKPGTEYNVTIQGVKGGFPSLPLVATFTT
4.07e+06 | 215 | CD71-binding FN3 domain SEQ ID NO: 326 (designed binder) MSLPAPKNLVVSRVTEDSARLSWTAPDAAFDSFEIGYWENAYKGEAIVLTVPGSERSYDLTGLKPGTEYWVQIGGVKGGVWSTPLSAIFTT
4.92e+06 | 462 | CD71-binding FN3 domain SEQ ID NO: 324 (designed binder) MSLPAPKNLVVSRITEDSARLSWTAPDAAFDSFEIGYFENLYLGEAIVLTVPGSERSYDLTGLKPGTEYWVQIGGVKGGNWSAPLSAISTT
3.99e+06 | 290 | CD71-binding FN3 domain SEQ ID NO: 320 (designed binder) MSLPVPKNLVVSRVTEDSARLSWTAPDAAFDSFEIGYWENAYKGEAIVLTVPGSERSYDLTGLKPGTEYWVQIGGVKGGNWSAPLSAIFTT
4.57e+06 | 187 | CD71-binding FN3 domain SEQ ID NO: 319 (designed binder) MSLPAPKNLVVSRVTEDSARLSWTAPGAAFDSFEIGYFENLYLGEAIVLTVPGSERSYDLTGLKPGTEYWVQIGGVKGGVWSVPLSAIFTT
4.24e+06 | 227 | CD71-binding FN3 domain SEQ ID NO: 327 (designed binder) MSLPAPKNLVVSRVTEDSARLSWTAPDAAFDSFEIGYWENAYKGEAIVLTVPGSERSYDLTGLKPGTEYWVQIGGVKGGNWSAPLSAIFTT
4.37e+06 | 205 | CD71-binding FN3 domain SEQ ID NO: 325 (designed binder) MSLPAPKNLVVSRVTEDSARLSWTAPDAAFDSFEIGYFENLYLGEAIVLTVPGSERSYDLTGLKPGTEYWVQIGGVKGGNWSAPLSEIFTT
4.99e+06 | 252 | CD71-binding FN3 domain SEQ ID NO: 322 (designed binder) MSLPAPKNLVVSRVTEDSARLSWTAPDAAFDSFEIGYFEITRYGEAIILFVPGSERSYDLTGLKPGTEYWVQIGGVKGGNWSAPLSAIFTT
4.22e+06 | 95 | CD71-binding FN3 domain SEQ ID NO: 323 (designed binder) MSLPAPKNLVVSRVTEDSARLSWTAPDAAFDSFEIGYFENLYLGEAIVLTVPGSERSYDLTGLKPGTEYWVQIGGVKGGNWSGPLSAIFTT
4.31e+06 | 92 | CD71-binding FN3 domain SEQ ID NO: 330 (designed binder) MSLPAPKNLVVSRVTEDSARLSWTAPDAAFDSFEIGYFENLYLGEAIVLTVPGSERSYDLTGLKPGTEYWVQIGGVKGGNWSAPLSAIVTT
3.7e+06 | 42 | CD71-binding FN3 domain SEQ ID NO: 328 (designed binder) MSLPAPKNLVVSRVTEDSARLSWTAPDAAFDSFEIGYFGNLYLGEAIVLTVPGSERSYDLTGLKPGTEYWVQIGGVKGGNWSAPLSAIFTT
4.64e+06 | 128 | CD71-binding FN3 domain SEQ ID NO: 329 (designed binder) MSLPAPKNLVVSRVTEDSARLSWTAPDAAFDSFDIGYFEATYYGEAIVLTVPGSERSYDLTGLKPGTEYRVWIGGVKGGYYSNPLSAIFTT
4.94e+06 | 380 | CD71-binding FN3 domain SEQ ID NO: 332 (designed binder) MSLPAPKNLVVSRVTEDSARLSWTAPDAAFDSFEIGYWEGPGGGEAIILVVPGSERSYDLTGLKPGTEYYVQIGGVKGGDWSTPLWATFTT
